Measured values from PMC3690481, “OTULIN Antagonizes LUBAC Signaling by Specifically Hydrolyzing Met1-Linked Polyubiquitin” (Cell, 2013).

Biological target: T1, FlAsH-tagged Met1-diUb (UniProt P0CG48 1-76; P0CG48 1-71, Lumio Green (FlAsH) on the C-terminal WCCPGCC motif)
T1 construct: ubiquitin, distal moiety, residues 1-76, joined by Gly76 in a peptide bond to Met1 of the proximal moiety; ubiquitin, proximal moiety; a C-terminal WCCPGCC motif replaces aa 72-76, so that residues 1-71 are left; Construct described in Ye et al., 2011; Chain: Ub(1-76)-Ub(1-71)-WCCPGCC; also called FlAsH-tagged Met1-diUb WT; Met1-linked diUb; source: expressed from pET17 plasmid, purified as …
Assay: fluorescence polarisation; FlAsH-tagged diUb fixed (10 μl of 100 nM plus 10 μl protein), OTULIN C129A variants serially diluted; 20 mM Tris pH 7.4, 100 mM NaCl, 5 mM β-mercaptoethanol, 0.1 mg/ml BSA; one-site binding model; triplicate
Details: both partners purified

Binder | Kd [nM] | binding result
OTULINcat C129A (aa 80–352) (domain or fragment, human, UniProt Q96BN8 80-352, looked up, FAM105B/OTULIN, human, catalytic OTU domain aa 80-352, catalytic Cys129 changed to Ala; Expressed from pOPIN-F. PDB 3ZNV is the wild-type parent of the same limits; also called OTULIN (80–352) C129A; OTULIN 80-352 C129A; source: E. coli Rosetta2 (DE3) pLacI, purified (Ni2+ resin, 3C protease, anion exchange, SEC)) LSVAPEMDIMDYCKKEWRGNTQKATCMKMGYEEVSQKFTSIRRVRGDNYAALRATLFQAMSQAVGLPPWLQDPELMLLPEKLISKYNWIKQWKLGLKFDGKNEDLVDKIKESLTLLRKKWAGLAEMRTAEARQIACDELFTNEAEEYSLYEAVKFLMLNRAIELYNDKEKGKEVPFFSVLLFARDTSNDPGQLLRNHLNQVGHTGGLEQVEMFLLAYAVRHTIQVYRLSKYNTEEFITVYPTDPPKDWPVVTLIAEDDRHYNIPVRVCEETSL | 196 | –
OTULIN C129A TQK100-102AAA (enzyme, human, UniProt Q96BN8 1-352, looked up, also called triple mutant TQK100-102 to AAA; source: E. coli Rosetta2 (DE3) pLacI, purified (Ni2+ resin, 3C protease, SEC)) MSRGTMPQPEAWPGASCAETPAREAAATARDGGKAAASGQPRPEMQCPAEHEEDMYRAADEIEKEKELLIHERGASEPRLSVAPEMDIMDYCKKEWRGNAAAATCMKMGYEEVSQKFTSIRRVRGDNYAALRATLFQAMSQAVGLPPWLQDPELMLLPEKLISKYNWIKQWKLGLKFDGKNEDLVDKIKESLTLLRKKWAGLAEMRTAEARQIACDELFTNEAEEYSLYEAVKFLMLNRAIELYNDKEKGKEVPFFSVLLFARDTSNDPGQLLRNHLNQVGHTGGLEQVEMFLLAYAVRHTIQVYRLSKYNTEEFITVYPTDPPKDWPVVTLIAEDDRHYNIPVRVCEETSL | – | binds
